The results in this text go back to patent publication US20190002514A1 (Dana-Farber, published 2019).

Starred links: 1 amine or outer side, 2 acyl side, 3 side chain; linkers in the order of their positions; H or OH if unused. Positions of bridges follow the written chain, without caps; N, C: chain ends. Non-standard residues stand in square brackets, D forms with d. No end group written: not given here. *: point of attachment. Nip(3R) = O=C([C@@H]1CCCN([*:1])C1)[*:2]; S5 = C=CCCC[C@](C)(N)C(=O)O; Acryloyl = C=CC(=O)*

For experiment [1], the target named is T1, BFL-1ΔC (aa 1-153) (human, UniProt Q16548 1-153).
T1 construct: Recombinant, expressed in E. coli; the recombinant construct's species is not restated; also called wild-type BFL-1ΔC; BFL-1 WT; not shown: N-terminal His tag and vector-derived linker of pET19b
T1 sequence: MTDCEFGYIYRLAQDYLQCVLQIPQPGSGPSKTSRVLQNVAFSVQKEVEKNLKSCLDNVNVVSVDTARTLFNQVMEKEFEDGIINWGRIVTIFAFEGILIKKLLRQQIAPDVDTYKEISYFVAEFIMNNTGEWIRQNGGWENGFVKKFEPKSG
The experiment in a line: covalent conjugation assay, gel shift.

Experiment [2] deals with T2, BFL-1ΔC C4S/C19S (human, UniProt Q16548 1-153).
T2 construct: range 1-153; Recombinant, E. coli; made by site-directed mutagenesis; also called His-BFL-1ΔC C4S/C19S; C55-only BFL-1; not shown: N-terminal His tag from the pET19b vector
T2 sequence (looked up): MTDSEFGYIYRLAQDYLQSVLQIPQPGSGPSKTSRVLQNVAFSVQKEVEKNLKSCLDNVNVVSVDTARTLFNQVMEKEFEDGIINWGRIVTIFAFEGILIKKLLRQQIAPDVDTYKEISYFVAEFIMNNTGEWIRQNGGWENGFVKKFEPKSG
Nature of the experiment: covalent conjugation, 10:1 peptide:protein, reducing and denaturing gel, Coomassie. As for the experimental part: Processing for gel electrophoresis and Coomassie staining was performed as above.

For experiment [3], the target named is T3, HA-BFL-1ΔC C4S/C19S (human, UniProt Q16548 1-153).
T3 construct: range 1-153; tested in lysates and in intact cells; also called expressed BFL-1; not shown: HA tag
T3 sequence (looked up): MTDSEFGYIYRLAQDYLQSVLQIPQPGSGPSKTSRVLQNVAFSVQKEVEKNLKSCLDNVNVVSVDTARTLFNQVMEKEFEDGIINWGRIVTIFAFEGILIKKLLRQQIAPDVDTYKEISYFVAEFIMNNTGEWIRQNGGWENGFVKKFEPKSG
The experiment in a line: crosslinking in lysates of transfected 293T cells, anti-HA and biotin western analysis. As for the experimental part: For lysate experiments, cells were trypsinized 24 hours post-transfection, washed with PBS, and lysed by incubation with 1% CHAPS lysis buffer (150 mM NaCl, 50 mM Tris pH 7.4, 100 mM DTT). Protein concentration of the soluble fraction was measured using a BCA kit according to manufacturer's instructions (Thermo Scientific). […] Samples were then boiled in LDS buffer and subjected to western analysis using 1:1000 dilutions of HA (Sigma-Aldrich, #12CA5) and biotin (Abcam, #53494) antibodies. […] After 24 h, cells were trypsinized, washed with PBS, lysed in 1% CHAPS buffer, and the supernatant collected for protein concentration determination by BCA kit. […] The mixtures were then subjected to HA or FLAG (Sigma-Aldrich, F7425) immunoprecipitation, followed by western analysis using 1:1000 dilutions of HA, FLAG, biotin, and BID (Santa Cruz sc-11423) antibodies. […] Cells were harvested and lysed as above, and incubated overnight with anti-HA agarose beads (Pierce). The beads were washed 3 times with lysis buffer, eluted by boiling in LDS buffer, and subjected to western analysis with HA and biotin antibodies.

The target in experiment [4] is T4, native BFL-1 (A375P melanoma cells) (human, UniProt Q16548 1-175).
T4 construct: also called native mitochondrial BFL-1
T4 sequence: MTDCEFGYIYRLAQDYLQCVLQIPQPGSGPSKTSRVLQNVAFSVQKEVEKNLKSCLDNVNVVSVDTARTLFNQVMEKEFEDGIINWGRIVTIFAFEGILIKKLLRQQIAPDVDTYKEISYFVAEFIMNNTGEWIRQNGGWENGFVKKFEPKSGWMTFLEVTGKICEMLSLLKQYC
The experiment in a line: A375P lysates with biotinylated peptides, streptavidin pull-down, BFL-1 western analysis; also biotinylation of purified mitochondria.

Experiment [5] deals with T5, Bfl-1 (recombinant protein of Examples 1-4) (UniProt Q16548 1-153, limits assumed).
T5 construct: also called 9xHis-tagged Bfl-1
T5 sequence (looked up): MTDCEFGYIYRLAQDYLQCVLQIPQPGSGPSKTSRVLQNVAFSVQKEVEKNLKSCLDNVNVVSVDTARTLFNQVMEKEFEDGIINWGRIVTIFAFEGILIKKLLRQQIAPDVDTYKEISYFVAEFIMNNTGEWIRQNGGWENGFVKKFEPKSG
The experiment in a line: fluorescence polarization: FITC-labelled SAHB, anti-apoptotic protein serially diluted from 1 µM. The method, then:
(§1) The solution-state equilibrium binding assay was used to determine binding affinities of the stapled peptides to the anti-apoptotic proteins. Proteins were serially diluted from 1 μM, then combined with FITC-labeled SAHB and polarization measured at 5 min on a microplate reader. We then calculated dissociation constants (KD) by nonlinear regression analysis of dose-response curves.
For orientation: Polarisation of emitted light reports the rotation of a fluorescent probe.

Experiment [6] concerns the target T6, MCL-1 (recombinant protein of Examples 1-4) (UniProt Q07820 170-327, limits assumed).
T6 construct: also called MCL-I
The experiment is described as above. As for the experimental part: as §1

In experiment [7] the target is T7, BFL-1 C4S/C19S/C55S.
T7 construct: member of m33; m12 without cysteines; also called BFL-1ΔC C4S/C19S/C55S
T7 chain: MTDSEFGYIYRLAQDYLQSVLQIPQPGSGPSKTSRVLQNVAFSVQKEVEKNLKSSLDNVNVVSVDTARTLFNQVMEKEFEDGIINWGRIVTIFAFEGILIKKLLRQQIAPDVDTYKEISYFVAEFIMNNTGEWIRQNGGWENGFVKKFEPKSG
The experiment in a line: biolayer interferometry (Octet RED384): biotin-PEG-NOXA SAHB on super streptavidin tips, BFL-1ΔC construct in solution. The method, then: (§2) Excess streptavidin was quenched by incubation with 2 μg/mL biocytin. The tips were then washed with kinetics buffer and soaked in a serial dilution of BFL-1ΔC for 10 min to measure association rate, followed by a 15 min incubation in kinetics buffer to measure dissociation rate. Dissociation constants were calculated using Octet Data Analysis version 9.0.
In general terms: BLI is a label-free optical method that tracks binding on a fibre tip over time.

For experiment [8], the target named is T1, BFL-1ΔC (aa 1-153). The description is as above. The method, then:
as §2

In experiment [9] the target is T2, BFL-1ΔC C4S/C19S. The experiment is described as above. The method, then: as §2

T6 sequence (Q07820 170-327 limits assumed): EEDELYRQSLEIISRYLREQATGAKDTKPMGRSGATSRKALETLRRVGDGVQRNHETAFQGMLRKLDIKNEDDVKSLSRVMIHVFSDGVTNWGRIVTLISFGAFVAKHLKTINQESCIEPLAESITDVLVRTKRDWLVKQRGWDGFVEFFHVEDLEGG

B1: BIM SAHBA-3 (peptide)
peptide: [Nip(3R)](Acryloyl)IAQELR[S5]IGD[S5]FNAYYARR
modifications: staple 8-12
notes: Warhead-bearing BIM SAHBA (aa 147-166); also called BIM SAHBA-WH with warhead 3; biotinylated BIM SAHBA-3
Take B1: the binding result in [1], in experiment [2], in [3] and in [4] was “binds” in each case.

B2: BIM SAHBA bearing warhead 8 (peptide)
peptide: Acryloyl-IAQELR[S5]IGD[S5]FNAYYARR
modifications: staple 7-11
notes: Member of the BIM SAHBA warhead panel 1-8
Take B2: the binding result in experiment [2] is “binds”.

B3: NOXA SAHBA bearing warhead 1 (peptide)
peptide: Acryloyl-[(3S)‑pyrrolidine‑3‑carboxylic acid]EVESATQLR[S5]FGD[S5]LNFRQKLL
modifications: staple 11-15
notes: Member of the NOXA SAHBA warhead panel 1-8
Consider B3, for which the binding result in [2] was “binds”.

B4: NOXA SAHBA bearing warhead 5 (peptide)
peptide: Acryloyl-PEVESATQLR[S5]FGD[S5]LNFRQKLL
modifications: staple 11-15; also: X1 proline L or D not settled
notes: as for B3
For the molecule B4, in experiment [2], the binding result is “binds”.

B5: BIM SAHBA bearing warhead 1 (peptide)
peptide: [(3S)‑1‑acryloylpyrrolidine‑3‑carboxylic acid]IAQELR[S5]IGD[S5]FNAYYARR
modifications: staple 8-12
notes: as for B2
As to B5, the binding result in experiment [2] is listed as “binds”.

B6: NOXA SAHBA (peptide)
peptide: AELEVECATQLR[S5]FGD[S5]LNFRQKLL
modifications: staple 13-17; also: N-terminal PEG-biotin or FITC depending on assay
notes: Stapled NOXA BH3 (aa 19-43) with native C25; also called WT NOXA SAHB; wild-type NOXA SAHBA
Consider B6, for which the EC50 (read off the curve) (as a rule, the concentration that produces a half-maximal response) in experiment [5] is ~100 nM; in experiment [6] it was ~200 nM. The Kd – broadly, the constant that tells how readily two partners part at equilibrium – was found to be 118 nM in experiment [7], 122 nM in experiment [8] and 165 nM in [9].

As to AELEVECATQLR[S5]YGD[S5]LNFRQKLL (staple 13-17; also: FITC-labelled for FP assay) [NOXA SAHBA F32Y], the “EC50 (read off the curve)” value in [5] was ~200 nM. In addition, the binding result in [6] is recorded as “no binding (tested: 1e-6 M)”.

B7: NOXA SAHBA C25S (peptide)
peptide: AELEVESATQLR[S5]FGD[S5]LNFRQKLL
modifications: staple 13-17; also: N-terminal PEG-biotin or FITC depending on assay
notes: Stapled NOXA BH3 with C25S; also called NOXA C25S SAHB; C25S mutant peptide
Consider B7, for which the Kd in [7] is 58.2 nM; in experiment [8], 46.6 nM; in experiment [9], 47.2 nM.
